In patent publication US20100055108A1:

What was measured:
human IL-17RC (human) = human IL-17RC (human) (UniProt Q8NAC3); experiment: cell-based or functional assay
human IL-17RA (human) = human IL-17RA (human) (UniProt Q96F46); experiment: cell-based or functional assay

Chain of UniProt Q8NAC3 (Q8NAC3 21-791): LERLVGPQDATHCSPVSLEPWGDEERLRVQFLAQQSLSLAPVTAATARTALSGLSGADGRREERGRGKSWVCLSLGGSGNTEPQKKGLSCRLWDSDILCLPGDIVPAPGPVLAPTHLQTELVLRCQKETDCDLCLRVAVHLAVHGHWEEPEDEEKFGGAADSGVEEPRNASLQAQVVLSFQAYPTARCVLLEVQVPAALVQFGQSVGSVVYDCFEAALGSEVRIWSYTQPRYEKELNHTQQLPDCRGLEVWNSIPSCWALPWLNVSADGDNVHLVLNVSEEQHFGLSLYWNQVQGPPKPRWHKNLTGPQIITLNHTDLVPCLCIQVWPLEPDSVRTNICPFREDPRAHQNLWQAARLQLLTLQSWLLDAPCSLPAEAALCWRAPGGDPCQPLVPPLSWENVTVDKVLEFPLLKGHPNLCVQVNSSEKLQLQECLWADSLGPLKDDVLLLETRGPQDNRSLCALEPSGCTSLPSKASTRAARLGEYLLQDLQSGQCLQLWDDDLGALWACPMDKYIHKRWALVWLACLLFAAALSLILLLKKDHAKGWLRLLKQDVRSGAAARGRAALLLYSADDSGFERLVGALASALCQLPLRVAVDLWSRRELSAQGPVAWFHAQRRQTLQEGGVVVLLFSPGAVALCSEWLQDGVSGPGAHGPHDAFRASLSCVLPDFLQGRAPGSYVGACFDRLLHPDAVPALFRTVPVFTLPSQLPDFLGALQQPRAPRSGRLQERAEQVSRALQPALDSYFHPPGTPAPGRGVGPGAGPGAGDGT

- inhibition of activation of c-Jun (c-Jun mRNA, quantitative RT-PCR) after IL-17RC iRNA knockdown in AGS cells (human IL-17RC (human)): 82%
- inhibition of activation of p65 (DNA-binding activity, TransAM NFkB kit) after IL-17RC iRNA knockdown in AGS cells (human IL-17RC (human)): 89%
- inhibition of IL-17A-induced activation of c-Jun (c-Jun mRNA, quantitative RT-PCR) after IL-17RA iRNA knockdown in AGS cells (human IL-17RA (human)): 80%
- inhibition of IL-17A-induced activation of p65 (DNA-binding activity, TransAM NFkB kit) after IL-17RA iRNA knockdown in AGS cells (human IL-17RA (human)): 97%
Substance: recombinant human IL-17A (from UniProt Q16552 20-155) (ligand)
